Drawing on paper PMC5503752 (Biophysical chemistry, 2017), this text covers Kd for one molecule.

Like-named read-outs stand apart in the source and are kept apart here. Some results are limits rather than exact numbers.

What all share (test): other fluorescence titration
Test [1] concerns the target T1, Full-length, wild-type calmodulin (paramecium sequence) (paramecium, UniProt P07463 1-149).
The target in test [2] is T2, N-domain fragment of calmodulin (CaMN, residues 1-75) (paramecium, UniProt P07463 2-76).
The target in test [3] is T3, C-domain fragment of calmodulin (CaMC, residues 76-148) (paramecium, UniProt P07463 77-149).
For test [4], the target named is T1, Full-length, wild-type calmodulin …. This is another data set of the same source.
In test [5] the target is T2, N-domain fragment of calmodulin (CaMN, …). This is another data set of the same source.
For test [6], the target named is T3, C-domain fragment of calmodulin (CaMC, …). This is another data set of the same source.

B1: NaV1.2 IQ biosensor (rat NaV1.2 residues 1901-1927 flanked by YFP and CFP) (domain or fragment)
chain: KRKQEEVSAIVIQRAYRRYLLKQKVKK
Consider B1, for which the Kd in test [1] is 85 nM; in test [2] it was > 100000 nM; in test [3] it was 386 nM; in test [4], 3.2 nM; in test [5], > 100000 nM; in test [6], 11.6 nM.

Broadly, the Kd is a measure of binding affinity in units of concentration. Lower therefore signals a tighter complex.
